Measurements taken from PMC9850920.

Target: T1, METTL16-His6 (full length) (Homo sapiens, UniProt Q86W50)
T1 sequence: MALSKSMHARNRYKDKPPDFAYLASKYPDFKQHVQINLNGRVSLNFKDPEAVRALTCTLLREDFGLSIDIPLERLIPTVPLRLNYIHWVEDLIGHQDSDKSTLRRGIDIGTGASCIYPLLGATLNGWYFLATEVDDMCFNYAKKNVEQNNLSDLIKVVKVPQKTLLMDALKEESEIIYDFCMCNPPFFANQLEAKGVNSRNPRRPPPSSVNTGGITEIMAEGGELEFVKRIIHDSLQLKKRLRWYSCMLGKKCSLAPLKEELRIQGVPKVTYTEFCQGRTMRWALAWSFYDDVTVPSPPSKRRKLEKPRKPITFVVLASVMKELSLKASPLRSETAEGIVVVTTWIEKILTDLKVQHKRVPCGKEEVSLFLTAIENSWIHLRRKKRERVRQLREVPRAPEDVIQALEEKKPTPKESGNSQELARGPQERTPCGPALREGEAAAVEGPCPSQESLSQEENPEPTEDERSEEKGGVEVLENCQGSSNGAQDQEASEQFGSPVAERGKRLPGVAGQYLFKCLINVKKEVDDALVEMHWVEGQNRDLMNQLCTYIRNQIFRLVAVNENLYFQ
Experiment: MST

B1: MALAT1 triple helix (structured_RNA)
RNA: GGAAGGUUUUUCUUUUCCUGAGAAAACAACACGUAUUGUUUUCUCAGGUUUUGCUUUUUGGCCUUUUUCUAGCUUAAAAAAAAAAAAAGCAAAA
Kd: 31 ± 3 nM
